Data reported in publication PMC11249846 (Protein Science : A Publication of the Protein Society, 2024).

Target: Hsc70‐T204A (human, UniProt P11142 1-646, T204A)
Assay: NMR titration

Hsc70‐T204A, sequence (P11142 whole entry T204A): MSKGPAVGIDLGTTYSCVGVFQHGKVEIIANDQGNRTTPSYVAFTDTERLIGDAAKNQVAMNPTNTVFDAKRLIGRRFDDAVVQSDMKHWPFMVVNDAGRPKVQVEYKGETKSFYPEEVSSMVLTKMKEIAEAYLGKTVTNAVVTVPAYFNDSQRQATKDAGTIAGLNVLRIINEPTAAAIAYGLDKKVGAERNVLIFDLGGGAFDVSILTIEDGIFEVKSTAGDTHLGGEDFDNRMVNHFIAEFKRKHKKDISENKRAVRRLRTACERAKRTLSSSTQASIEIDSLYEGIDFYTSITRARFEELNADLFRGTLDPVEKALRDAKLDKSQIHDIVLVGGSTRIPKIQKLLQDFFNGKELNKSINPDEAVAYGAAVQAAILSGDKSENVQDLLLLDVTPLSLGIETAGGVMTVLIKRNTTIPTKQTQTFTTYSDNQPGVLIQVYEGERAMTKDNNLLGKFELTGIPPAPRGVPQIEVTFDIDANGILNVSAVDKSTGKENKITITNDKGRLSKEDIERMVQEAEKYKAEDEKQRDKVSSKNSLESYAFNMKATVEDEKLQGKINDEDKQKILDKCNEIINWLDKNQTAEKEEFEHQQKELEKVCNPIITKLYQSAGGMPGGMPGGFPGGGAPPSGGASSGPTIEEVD

binding result: binds
B1: wt (JD‐G/FR) (domain or fragment)
chain: not shown
